Columns and labels:
[1] = tested on: mixed MCF10A^MUC1,±HER2 cells; assay: Mixed cell suspension survival assay under anchorage-free conditions; assay type: cell-based; settings: 1 nM, 72 h
Description: For mixed cell assays, MUC1ΔCT was induced with 200 ng/ml doxycycline for 24 h. A 1:1 mixture of 2.5×10^5 MCF10A^MUC1 and MCF10AMUC1, HER2 cells were seeded per well in a 24-well ultra-low attachment plate in 0.80 mL of complete media. 200 ng/ml doxycycline, 1 nM StcE, and 1 nM αHER2-eStcE were added as appropriate. The plate was incubated at 37° C., 5% CO2, 125 rpm. At t=0, 24, 48, and 72 h, cells were spun down at 350× g for 5 min, resuspended in 100 μL of PBS with 0.1% benzonase, and incubated at room temperature for 15 min. Cells were then resuspended in 200 μL of enzyme-free cell dissociation buffer and stained with Alexa Fluor 647 anti-human CD340 (erbB2/HER-2) antibody (24D2 clone) (BioLegend) and 500 nM Sytox Green Nucleic Acid Stain (Thermo Fisher Scientific) for 20 min at 4° C., according to manufacturer recommendations, prior to analysis using a BD Accuri C6 plus. All flow cytometry data were analyzed using FlowJo v. 10.0 (TreeStar).

[2] = Complete blood count (CBC) after StcE injection; assay type: in vivo, mouse; settings: 3 h, C57BL/6, n=1
Description: In vivo toxicity studies. 10-week-old C57BL/6 mice (bred in-house) were injected with PBS or StcE (0.15 mg/kg or 15 mg/kg) via intravenous injection. 9-week-old female BALB/cJ mice (Jackson Labs) were injected with PBS or 10 mg/kg αHER2-eStcE via intraperitoneal injection. Mice were submitted to the Animal Diagnostic Lab at Stanford University for necropsy and complete blood count (CBC) analyses 3 h post injection.

[3] = tested on: mucins in plasma and tissues; assay: In vivo mucin degradation Western blot after StcE; design: species or system mouse; settings: 0.25 mg/kg
[4] = biological target: T1, cell surface CD43 (K562, CCRF-CEM, CCRF-HSB-2 cells) (Homo sapiens, UniProt P16150); assay: CD43 flow cytometry of leukemia cell lines; assay type: cell-based; settings: 50 nM StcE, 1 h
T1 construct: endogenous in cells; host or cells: K562, CCRF-CEM, CCRF-HSB-2
T1 sequence (P16150 20-400): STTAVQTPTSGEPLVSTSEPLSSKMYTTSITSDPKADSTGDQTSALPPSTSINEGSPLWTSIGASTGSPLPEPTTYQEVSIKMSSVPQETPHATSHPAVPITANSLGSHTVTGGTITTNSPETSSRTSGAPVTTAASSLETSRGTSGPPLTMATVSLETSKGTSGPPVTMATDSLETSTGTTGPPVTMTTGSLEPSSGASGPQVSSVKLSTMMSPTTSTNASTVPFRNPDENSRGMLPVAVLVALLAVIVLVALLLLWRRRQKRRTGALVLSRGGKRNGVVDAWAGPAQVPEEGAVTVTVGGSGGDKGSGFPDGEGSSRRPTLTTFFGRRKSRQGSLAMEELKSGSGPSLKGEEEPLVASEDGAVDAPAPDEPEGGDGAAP
Description: CD43 and Siglec-7-Fc flow cytometry. 1×10^6 K562, CCRF-CEM, or CCRF-HSB-2 cells growing in log phase were harvested, resuspended in 1 mL of serum-free RPMI, and treated with either vehicle or 50 nM StcE for 1 h. Cells were subsequently spun down at 600× g and washed twice in PBS. Cells were then resuspended in FACS buffer (0.5% BSA in PBS) at 1×10^6 cells/mL and aliquoted into a V-bottom 96-well plate (Corning) at 1×10^5 cells/well. For staining, a precomplex solution of 1 μg/mL Siglec-7-Fc (R&D Systems) and 1 μg/mL Alexa Fluor 488-antihFc was made up in FACS buffer and incubated on ice for 1 h. Alexa Fluor 647 CD43/sialophorin antibody (MEM-59 clone) (Novus Biologicals) was subsequently added to the precomplex solution prior to staining. Cells were stained in 100 μL of staining solution for 30 min, washed twice with FACS buffer, and analyzed by flow cytometry using a BD Accuri C6 plus.

Question: What does the source list for “StcE: secreted protease of C1 esterase inhibitor, zinc metalloprotease pan mucinase from E. coli O157:H7; SEQ ID NO:1”?
Answer: Suspension survival in mixed HER2^+ and HER2- populations [1]: cell death in both populations; Basophil absolute ([2]; StcE 0.15 mg/kg I.V.): 0; Basophils ([2]; StcE 0.15 mg/kg I.V.): 0%; Eosinophil absolute ([2]; StcE 0.15 mg/kg I.V.): 44; Eosinophils ([2]; StcE 0.15 mg/kg I.V.): 1%; Hematocrit (HCT) ([2]; StcE 0.15 mg/kg I.V.): 45.5%; Hemoglobin (HGB) ([2]; StcE 0.15 mg/kg I.V.): 14 gm/dL; Immature reticulocyte fraction (IRF) ([2]; StcE 0.15 mg/kg I.V.): 54.9%; Low fluorescence reticulocytes (LFR) ([2]; StcE 0.15 mg/kg I.V.): 45.1%; Lymphocyte absolute ([2]; StcE 0.15 mg/kg I.V.): 4085; Lymphocytes ([2]; StcE 0.15 mg/kg I.V.): 92%; MHC concentration (MCHC) ([2]; StcE 0.15 mg/kg I.V.): 30.8 g/dL; Mean corpuscular hemoglobin (MCH) ([2]; StcE 0.15 mg/kg I.V.): 14.3 pg; Mean corpuscular volume (MCV) ([2]; StcE 0.15 mg/kg I.V.): 46.5 fL; Mean platelet volume (MPV) ([2]; StcE 0.15 mg/kg I.V.): 7.3 fL; Medium fluorescence reticulocytes (MFR) ([2]; StcE 0.15 mg/kg I.V.): 18.7%; Monocyte absolute ([2]; StcE 0.15 mg/kg I.V.): 133; Monocytes ([2]; StcE 0.15 mg/kg I.V.): 3%; Neutrophil absolute ([2]; StcE 0.15 mg/kg I.V.): 178; Neutrophils ([2]; StcE 0.15 mg/kg I.V.): 4%; Platelet count ([2]; StcE 0.15 mg/kg I.V.): 1345 K/μL; Platelet distribution width (PDW) ([2]; StcE 0.15 mg/kg I.V.): 8.9 fL; Platelet estimate ([2]; StcE 0.15 mg/kg I.V.): Adequate; Platelet-large cell ratio (P-LCR) ([2]; StcE 0.15 mg/kg I.V.): 8.7%; RBC morphology ([2]; StcE 0.15 mg/kg I.V.): Normal; Red blood cell (RBC) ([2]; StcE 0.15 mg/kg I.V.): 9.78 M/μL; Red cell distribution width (RDW) ([2]; StcE 0.15 mg/kg I.V.): 19.2%; Reticulocyte absolute ([2]; StcE 0.15 mg/kg I.V.): 442056 µL⁻¹; Reticulocyte count ([2]; StcE 0.15 mg/kg I.V.): 4.52%; White blood cell (WBC) ([2]; StcE 0.15 mg/kg I.V.): 4.44 K/μL; Basophil absolute ([2]; StcE 15 mg/kg I.V.): 0; Basophils ([2]; StcE 15 mg/kg I.V.): 0%; Eosinophil absolute ([2]; StcE 15 mg/kg I.V.): 39; Eosinophils ([2]; StcE 15 mg/kg I.V.): 1%; Hematocrit (HCT) ([2]; StcE 15 mg/kg I.V.): 58.9%; Hemoglobin (HGB) ([2]; StcE 15 mg/kg I.V.): 18.3 gm/dL; Immature reticulocyte fraction (IRF) ([2]; StcE 15 mg/kg I.V.): 52.3%; Low fluorescence reticulocytes (LFR) ([2]; StcE 15 mg/kg I.V.): 47.7%; Lymphocyte absolute ([2]; StcE 15 mg/kg I.V.): 1458; Lymphocytes ([2]; StcE 15 mg/kg I.V.): 37%; MHC concentration (MCHC) ([2]; StcE 15 mg/kg I.V.): 31.1 g/dL; Mean corpuscular hemoglobin (MCH) ([2]; StcE 15 mg/kg I.V.): 14 pg; Mean corpuscular volume (MCV) ([2]; StcE 15 mg/kg I.V.): 44.9 fL; Mean platelet volume (MPV) ([2]; StcE 15 mg/kg I.V.): 6.8 fL; Medium fluorescence reticulocytes (MFR) ([2]; StcE 15 mg/kg I.V.): 28%; Monocyte absolute ([2]; StcE 15 mg/kg I.V.): 315; Monocytes ([2]; StcE 15 mg/kg I.V.): 8%; Neutrophil absolute ([2]; StcE 15 mg/kg I.V.): 2128; Neutrophils ([2]; StcE 15 mg/kg I.V.): 54%; Platelet count ([2]; StcE 15 mg/kg I.V.): 82 K/μL; Platelet distribution width (PDW) ([2]; StcE 15 mg/kg I.V.): 7.2 fL; Platelet estimate ([2]; StcE 15 mg/kg I.V.): Decreased; Platelet-large cell ratio (P-LCR) ([2]; StcE 15 mg/kg I.V.): 5.5%; RBC morphology ([2]; StcE 15 mg/kg I.V.): Normal; Red blood cell (RBC) ([2]; StcE 15 mg/kg I.V.): 13.11 M/μL; Red cell distribution width (RDW) ([2]; StcE 15 mg/kg I.V.): 22.2%; Reticulocyte absolute ([2]; StcE 15 mg/kg I.V.): 860016 µL⁻¹; Reticulocyte count ([2]; StcE 15 mg/kg I.V.): 6.56%; White blood cell (WBC) ([2]; StcE 15 mg/kg I.V.): 3.94 K/μL; Digestion of mucins in plasma and tissues [3]: digested mucins throughout the body; Cell surface CD43 level [4]: loss of cell surface CD43

— patent US20250276081A1, “Mucin-Active Proteases and Methods of Use” (priority 2022, published 2025)
